Assays:
[1] = target: N-protein WT (NWT) (SARS-CoV-2, UniProt P0DTC9 1-419); assay: SV-AUC; […], pH 7.4; […], pH 7.4; […], pH 7.50; temperature not given; conditions: protein: recombinant; tags: N-terminal 6xHis-TEV, cleaved; chain copies: 2; single strand
[2] = target: CTD (SARS-CoV-2, UniProt P0DTC9 247-364); assay: as above; conditions: protein: recombinant; tags: N-terminal 6xHis-TEV, cleaved; chain copies: 2; single strand

Binder	binding result [1]	binding result [2]
TTTTTTTTTT (ssDNA) [T10]	binds	
TTTTTTTTTTTTTTTTTTTTTTTTTTTTTTTTTTTTTTTT (ssDNA) [T40]	binds	binds

— paper doi:10.1101/2023.11.22.568361
